The values that follow come from patent publication US20250270324A1 (INVOX PHARMA, published 2025).

Broadly, the Kd is the constant that tells how readily two partners part at equilibrium. One may read the EC50 as the concentration giving half of the maximal effect. The low end stands for an effect from little substance, the high end for a need for much substance.

Some results are limits rather than exact numbers.

The target of assay [1] is T1, PD-L1 on PD-L1 cells (Promega, CS178103; PD1/PD-L1 Blockade Bioassay J1250/J1255) (UniProt Q9NZQ7 19-290). Description: cell-based or functional assay.
T1 sequence (Q9NZQ7 19-290): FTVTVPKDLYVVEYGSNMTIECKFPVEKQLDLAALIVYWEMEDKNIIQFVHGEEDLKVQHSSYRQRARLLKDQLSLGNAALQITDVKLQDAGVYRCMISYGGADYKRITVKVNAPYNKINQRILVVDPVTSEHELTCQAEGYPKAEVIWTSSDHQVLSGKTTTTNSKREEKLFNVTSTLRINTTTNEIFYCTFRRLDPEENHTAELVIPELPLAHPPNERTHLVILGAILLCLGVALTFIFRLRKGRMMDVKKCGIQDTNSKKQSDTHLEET
For assay [2], the target named is T2, Cyno PD-L1-rCD4-His (cynomolgus).
T2 construct: The entry as printed begins with the signal peptide; also called cynomolgus PD-L1-rCD4-His
T2 sequence (chain, as listed by the source limits assumed): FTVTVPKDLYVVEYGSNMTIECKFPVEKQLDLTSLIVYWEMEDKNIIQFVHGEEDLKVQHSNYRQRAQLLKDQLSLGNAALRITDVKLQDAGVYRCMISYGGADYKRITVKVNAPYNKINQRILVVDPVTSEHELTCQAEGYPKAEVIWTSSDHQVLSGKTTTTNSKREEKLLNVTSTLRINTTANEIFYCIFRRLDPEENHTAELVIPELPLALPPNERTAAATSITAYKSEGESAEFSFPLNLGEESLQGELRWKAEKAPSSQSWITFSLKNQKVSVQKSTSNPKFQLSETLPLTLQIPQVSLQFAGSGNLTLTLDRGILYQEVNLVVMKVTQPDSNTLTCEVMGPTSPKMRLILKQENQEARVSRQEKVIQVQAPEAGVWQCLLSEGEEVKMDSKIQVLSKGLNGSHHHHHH
Description: SPR; G1/929_01_A02 on PD-L1-rCD4-His (Table 8) against G1AA/E12v2 on PD-L1-His (Table 9).

Assay [3] concerns the target T3, human PD-L1-rCD4-His (human).
T3 construct: Human PD-L1 fused to the monomeric C-terminal rat CD4 domains 3 and 4 tag and His tag; made in HEK293; The entry as printed begins with the signal peptide (MRIF...); also called hPD-L1-rCD4-His; hu-PD-L1-rCD4-His
The description is as above.

Assay [4] addresses T2, Cyno PD-L1-rCD4-His. Description: SPR, IgG1 from culture supernatant. On the technique in general: SPR reads the build-up and loss of mass on a sensor chip optically.
Assay [5] deals with T3, human PD-L1-rCD4-His. Kind of assay: SPR, IgG1 from culture supernatant.
Assay [6] concerns the target mouse PD-L1 on LK35.2 cells (LK35.2 mPD-L1) (mouse, UniProt Q9EP73 19-290). Kind of assay: cell-based or functional assay.
Assay [7] has as its target T4, cynomolgus PD-L1-His (Acro Biosystems, PD1-C52H4) (cynomolgus, UniProt G7PSE7 19-239).
T4 construct: Bought; also called Cyno PD-L1-His
Description: SPR (Biacore T200), mAb on Protein A chip, antigen 81-0.037 nM. Here is the method:
(§1) Briefly, the anti-PD-L1 mAbs, diluted in HBS-EP buffer (GE Healthcare, BR100188) at 2 μg/ml, were injected individually on flows cell 2, 3 and 4 of a Protein A chip (GE Healthcare, 29127556) at 30 μl/min to achieve a final response of approximately 110 RU. The recombinant human, cynomolgus and mouse PD-L1-His antigens, diluted in HBS-EP buffer, were injected on flow cell 1, 2, 3 or 4 as appropriate at a concentration range of 81 nM to 0.037 nM with 3-fold dilutions for 4 min at 75 μl/min and then allowed to dissociate in buffer for 10 min. Regeneration was achieved by injecting 10 mM glycine-HCL pH1.5 (GE Healthcare, Human Antibody Capture Kit, BR00356) for 30 sec at a rate of 30 μl/min. Subtracted data (flow cell 2-flow cell 1, flow cell 3-flow cell 1, or flow cell 4-flow cell 1) were analysed using BIAevaluation 3.2 Software (GE Healthcare) to identify binding using the model 1:1 binding with mass transfer, with refractive index (RI) constant 0. To determine the affinities of the mouse PD-L1 binding curves, the Rmax of the corresponding human binding profiles was used.

Assay [8] has as its target T5, biotinylated human PD-L1-Avi-His (Acro Biosystems, PD1-H82E5) (human, UniProt Q9NZQ7 19-238, biotinylated).
T5 construct: Bought
Described as above. On the procedure:
as §1

Assay [9] addresses T1, PD-L1 on PD-L1 cells (Promega, …). Description: cell-based or functional assay. This is another data set of the same source.
Assay [10] addresses T6, human PD-L1 on HEK293 cells (HEK293.hPD-L1) (human, UniProt Q9NZQ7 19-290).
T6 construct: Flp-In T-REx 293 cells stably overexpressing human PD-L1; also called cell surface human PD-L1
Kind of assay: flow cytometry on HEK293 cells expressing human PD-L1, GMFI against concentration. Here is the method: Non-specific binding was also assessed by testing binding to HEK293 parental cells lacking human PD-L1 (Flp-In T-Rex 293 cell line, Life Technologies, R780-07).
HEK293 and HEK293.hPD-L1 suspensions were prepared in PBS containing 0.5% BSA (Sigma. A7906) and seeded at 1×10⁵ cell/well in 100 μl in round bottomed 96-well plates (VWR, 734-1797). […] The washed cells were resuspended in the diluted antibody mixture, incubated at 4° C. for 30 minutes, and then washed once in PBS. 100 μl/well of secondary antibody (Alexa Fluor 647-AffiniPure Goat Anti-Human IgG, F(ab′)2 Fragment Specific, Stratech Scientific, 109-605-006-JIR) diluted 1:1000 in PBS was then added, the cells/antibody mixture was incubated for 20 mins at 4° C., and the cells were then washed again with PBS and resuspended in 100 μl of PBS containing 7AAD (1:1000, Biotium, 40043) before being analysed using a Canto II flow cytometer (BD Bioscience). Dead cells were excluded and the fluorescence in the FITC channel (488 nm/530/30) was measured. The geometric mean fluorescence intensity (GMFI) values were plotted against the log concentration of antibody and the resulting curves were fitted using the log (agonist) versus response equation in GraphPad Prism.
Background: Flow cytometry measures light scatter and fluorescence of single cells or particles in a stream.

Assay [11] addresses T5, biotinylated human PD-L1-Avi-His (Acro …). Description: SPR; end of the range tied to this clone by the KD values of Table 4. On the procedure: as §1
Assay [12] concerns the target T7, mouse PD-L1-His (Acro Biosystems, PD1-M5220) (mouse, UniProt Q9EP73 19-238).
T7 construct: Bought; also called recombinant mouse PD-L1
Kind of assay: SPR (Biacore T200), mAb on Protein A chip, antigen 81-0.037 nM; Rmax of the human profile used. Here is the method: as §1

T4 sequence (G7PSE7 entry or part of it): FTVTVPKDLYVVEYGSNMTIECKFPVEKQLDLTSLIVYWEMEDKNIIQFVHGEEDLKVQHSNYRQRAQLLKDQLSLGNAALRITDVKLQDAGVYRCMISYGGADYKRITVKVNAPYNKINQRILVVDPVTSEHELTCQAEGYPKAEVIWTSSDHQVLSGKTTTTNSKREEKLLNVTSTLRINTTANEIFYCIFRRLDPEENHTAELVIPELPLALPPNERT
mouse PD-L1 on LK35.2 cells (LK35.2 mPD-L1), sequence (Q9EP73 19-290): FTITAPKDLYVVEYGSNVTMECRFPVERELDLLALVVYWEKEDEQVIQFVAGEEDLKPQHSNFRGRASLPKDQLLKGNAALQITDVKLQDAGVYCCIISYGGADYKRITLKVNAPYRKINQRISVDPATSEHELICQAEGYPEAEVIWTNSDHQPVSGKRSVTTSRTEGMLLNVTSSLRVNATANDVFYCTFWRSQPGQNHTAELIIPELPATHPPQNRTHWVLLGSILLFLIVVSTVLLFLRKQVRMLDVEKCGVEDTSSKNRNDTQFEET
T3 sequence (chain, as listed by the source limits assumed): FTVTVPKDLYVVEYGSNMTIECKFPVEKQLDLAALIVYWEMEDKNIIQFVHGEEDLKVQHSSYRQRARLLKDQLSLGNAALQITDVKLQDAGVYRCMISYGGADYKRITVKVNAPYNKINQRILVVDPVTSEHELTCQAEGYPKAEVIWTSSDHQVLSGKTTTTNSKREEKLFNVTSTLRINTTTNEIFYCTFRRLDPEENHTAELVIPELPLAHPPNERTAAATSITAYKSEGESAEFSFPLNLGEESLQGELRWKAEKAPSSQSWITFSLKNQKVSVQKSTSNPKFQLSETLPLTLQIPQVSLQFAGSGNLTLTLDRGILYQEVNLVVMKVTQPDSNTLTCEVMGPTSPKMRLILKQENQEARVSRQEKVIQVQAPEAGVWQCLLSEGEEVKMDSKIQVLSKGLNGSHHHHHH
T5 sequence (Q9NZQ7 19-238 limits assumed): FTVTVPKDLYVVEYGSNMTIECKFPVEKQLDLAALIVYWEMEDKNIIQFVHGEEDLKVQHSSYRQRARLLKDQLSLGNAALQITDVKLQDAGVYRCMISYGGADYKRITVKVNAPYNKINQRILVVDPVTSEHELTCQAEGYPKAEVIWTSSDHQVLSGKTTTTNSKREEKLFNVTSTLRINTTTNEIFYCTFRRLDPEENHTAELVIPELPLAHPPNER
T6 sequence (Q9NZQ7 19-290): as the sequence (Q9NZQ7 19-290) above
T7 sequence (Q9EP73 19-238 limits assumed): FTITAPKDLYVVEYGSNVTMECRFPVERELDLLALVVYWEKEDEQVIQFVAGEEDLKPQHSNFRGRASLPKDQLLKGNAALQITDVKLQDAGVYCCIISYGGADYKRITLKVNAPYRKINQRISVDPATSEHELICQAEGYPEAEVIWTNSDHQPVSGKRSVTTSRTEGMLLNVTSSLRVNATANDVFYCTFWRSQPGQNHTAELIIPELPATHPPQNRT

B1: G1/280_02_G02 (antibody, human IgG1, V domains shown)
VH: EVQLVQSGAEVKRPGASVKVSCKASGYTFTSYGISWVRQAPGQGLEWMGWISAYNGNTNYAQKLQGRVTMTTDTSTSTAYMELRSLRSDDTAVYYCARDLFPTIFGVSYYYYWGQGTLVTVSS
VL: QSALTQPASVSGSPGQSITISCTGTSSDVGGYNSVSWYQQFPGKAPKLMIFEVTNRPSGVSDRFSGSKSDNTASLTISGLQAEDEAEYYCSSFKRGSTLVVFG
Turning to B1, the “half maximal effective concentration (EC50), dose-response co-culture reporter assay (luciferase)” value in assay [1] was 4.2 nM.

B2: G1/929_01_A02 (antibody, human IgG1, V domains shown)
VH: EVQLVQSGAEVKRPGASVKVSCKASGYTFTSYGISWVRQAPGQGLEWMGWISAYSGGTNYAQKLQGRVTMTTDTSTSTAYMELRSLRSDDTAVYYCARDLFPTIFGVSYYYYWGQGTLVTVSS
VL: DIQMTQSPSTLSASVRDRVIITCRASQSIGNRLAWYQHKPGKAPKLLIYEASTSETGVPSRFSGSGSGTDFTLTISSLQPEDFATYYCQQSYSTPYTFGQGTKLEIKR
notes: IgG1; The heavy chain as printed has T28
As for B2, the “fold lower affinity than G1AA/E12v2” value in [2] and in assay [3] was over 10 fold in each case. Also, the Kd in [4] is 3.64 nM; in assay [5], 3.07 nM.

B3: G1/894_08_E05 (antibody, human IgG1, V domains shown)
VH: EVQLVQSGAEVKRPGASVKVSCKASGYTFTSYGISWVRQAPGQGLEWMGWISAYNSNTNYAQKLQGRVTMTTDTSTSTAYMELRSLRSDDTAVYYCARDLFPTIFGVSYYYYWGQGTLVTVSS
VL: DIQMTQSPSTLSASVGDRVTITCRASQSISGRLAWYQQKPGKAPNLLIYEASNLESGVPSRFSGSGSGTEFTLTISSLQPEDFATYYCQQSYSTPRVTFGQGTKVEIKR
notes: IgG1 without LALA, kappa light chain; also called G1/894_8_E05
Take B3: the “EC50 (nM), mPD-L1 DO11.10 T Cell Activation Assay (IL-2 release)” value (“EC50 (nM)” below) in [6] worked out at 4.37 nM. Besides, the “Emax (pg/ml), mPD-L1 DO11.10 T Cell Activation Assay (IL-2 release)” value (shortened to “Emax (pg/ml)”) in [6] was found to be 2110 pg/mL. Also, the Kd in assay [7] is 0.49 nM; in assay [8] it was 0.6 nM; in assay [4], 0.59 nM; in [5], 0.48 nM; in assay [12] it was 223 nM. For the same molecule, the “IC50 (nM), PD1/PD-L1 Blockade Bioassay” value in [9] was determined as 0.36 nM. Besides, the EC50 in [10] turned out to be 0.29 nM. Moreover, the “fold higher binding affinity than G1AA/280_02_G02_NS” value in [11] lay in the range of 1.8 to 4.8 fold.

B4: G1/887_04_G12 (antibody, human IgG1, V domains shown)
VH: EVQLVQSGAEVKRPGASVKVSCKASGYTFTSYGISWVRQAPGQGLEWMGWISAYNSNTNYAQKLQGRVTMTTDTSTSTAYMELRSLRSDDTAVYYCARDLFPTIFGVSYYYYWGQGTLVTVSS
VL: DIQMTQSPSTLSASVGDRVTITCRASQSISGRLAWYQQKPGKAPNLLIYEASNLESGVPSRFSGSGSGTEFTLTISSLQPEDFATYYCQQSYSWPRTFGQGTKVEIKR
notes: IgG1 without LALA, kappa light chain
For B4, the “EC50 (nM)” value in assay [6] came to 2.71 nM. In [6], the “Emax (pg/ml)” value came out at 1910 pg/mL. Moreover, the Kd came to 0.45 nM in assay [7]; 0.39 nM in assay [8]; 0.5 nM in assay [4]; 0.36 nM in assay [5]; 225 nM in assay [12]. Further, the “IC50 (nM), PD1/PD-L1 Blockade Bioassay” value in assay [9] stood at 0.33 nM. This molecule also came in with an EC50 in assay [10] of 0.27 nM.

B5: G1/887_04_E12 (antibody, human IgG1, V domains shown)
VH: EVQLVQSGAEVKRPGASVKVSCKASGYPFTSYGISWVRQAPGQGLEWMGWISAYNSNTNYAQKLQGRVTMTTDTSTSTAYMELRSLRSDDTAVYYCARDLFPTIFGVSYYYYWGQGTLVTVSS
VL: DIQMTQSPSTLSASVRDRVIITCRASQSIGNRLAWYQHKPGKAPKLLIYEASTSETGVPSRFSGSGSGTDFTLTISSLQPEDFATYYCQQSYSTPYTFGQGTKLEIKR
notes: IgG1 without LALA, kappa light chain; proline at Kabat position 28 of VH
B5: the “EC50 (nM)” value in [6] is 1.02 nM. Also, in assay [6], the “Emax (pg/ml)” value came to 1970 pg/mL. The Kd in assay [7] stood at 0.28 nM; in [8] it was 0.23 nM; in assay [4], 0.25 nM; in assay [5] it was 0.21 nM; in assay [12], 38 nM. The “IC50 (nM), PD1/PD-L1 Blockade Bioassay” value in [9] worked out at 0.35 nM. Further, the EC50 in [10] came out at 0.26 nM. For the same molecule, the “fold higher binding affinity than G1AA/280_02_G02_NS” value in [11] lay in the range of 1.8 to 4.8 fold.
